For this data set, the system named is Escherichia coli TOP10. The data set is described as follows: shrunken log2 fold change of peptide-encoding DNA abundance (4.5 h post-induction vs induction); higher = less antimicrobial activity (less host growth inhibition). The settings on record: time post-induction: 4.5 h; library: site-saturation at positions 5, 18, 19, 20.
Regarding RRIRGRPPRLPRPRPRPPYQPRP, the “shrunken log2 fold change” value was 0.123.
In the case of RRIRVRPPRLPRPRPRPWCSPRP, the “shrunken log2 fold change” value was -0.638.
For the sequence RRIRCRPPRLPRPRPRPIAKPRP, the “shrunken log2 fold change” value is 0.0637.
The result for RRIRPRPPRLPRPRPRPDPLPRP reads -0.379.
Under RRIRHRPPRLPRPRPRPVAGPRP stands 0.26; under RRIRHRPPRLPRPRPRPQVIPRP, -0.0106.
Under RRIRDRPPRLPRPRPRPWIEPRP stands 0.135; under RRIRCRPPRLPRPRPRPDMFPRP, -0.148.
As for RRIRIRPPRLPRPRPRPPLHPRP, the “shrunken log2 fold change” value amounted to 0.0232.
Consider RRIRKRPPRLPRPRPRPIDDPRP, for which the “shrunken log2 fold change” value came out at 0.0889.
Turning to RRIRNRPPRLPRPRPRPVLQPRP, the “shrunken log2 fold change” value is -0.157.
Regarding RRIRRRPPRLPRPRPRPIVQPRP, the “shrunken log2 fold change” value was -0.0768.
As for RRIRSRPPRLPRPRPRPGWGPRP, the “shrunken log2 fold change” value came out at 0.291.
For RRIRNRPPRLPRPRPRPKWQPRP, the “shrunken log2 fold change” value worked out at 0.182.
For RRIRGRPPRLPRPRPRPTGIPRP, the “shrunken log2 fold change” value was -0.0412.
The result for RRIRDRPPRLPRPRPRPKQQPRP reads -0.053; that for RRIRTRPPRLPRPRPRPVLWPRP, 0.117; that for RRIRERPPRLPRPRPRPMDRPRP, 0.0196.
As to RRIRTRPPRLPRPRPRPMSAPRP, the “shrunken log2 fold change” value was -0.152.
For the sequence RRIRYRPPRLPRPRPRPWNKPRP, the “shrunken log2 fold change” value is -0.00965.
Turning to RRIRQRPPRLPRPRPRPIWAPRP, the “shrunken log2 fold change” value was -0.0792.
As for RRIRGRPPRLPRPRPRPAVRPRP, the “shrunken log2 fold change” value was found to be 0.312.
For the sequence RRIRERPPRLPRPRPRPYNYPRP, the “shrunken log2 fold change” value is -0.519.
With RRIRPRPPRLPRPRPRPPFGPRP, the “shrunken log2 fold change” value stood at 0.432.
As to RRIRVRPPRLPRPRPRPRNKPRP, the “shrunken log2 fold change” value is -0.136.
For the sequence RRIRWRPPRLPRPRPRPLIKPRP, the “shrunken log2 fold change” value turned out to be 0.114.
Turning to RRIRLRPPRLPRPRPRPIQSPRP, the “shrunken log2 fold change” value was -0.0832.
With RRIRCRPPRLPRPRPRPSCTPRP, the “shrunken log2 fold change” value is -0.287.
Regarding RRIRLRPPRLPRPRPRPHHDPRP, the “shrunken log2 fold change” value was -0.694.
In the case of RRIRSRPPRLPRPRPRPAYYPRP, the “shrunken log2 fold change” value was -0.495.
As to RRIRIRPPRLPRPRPRPEILPRP, the “shrunken log2 fold change” value is -0.0902.
The result for RRIRGRPPRLPRPRPRPAWFPRP reads 0.652.
Under RRIRVRPPRLPRPRPRPDPMPRP stands -0.0769; under RRIRHRPPRLPRPRPRPLKIPRP, -0.0842.
Regarding RRIRQRPPRLPRPRPRPGYCPRP, the “shrunken log2 fold change” value was -0.0255.
Take RRIRGRPPRLPRPRPRPVCYPRP: the “shrunken log2 fold change” value is 0.833.
For RRIRKRPPRLPRPRPRPLWSPRP, the “shrunken log2 fold change” value was -0.014.
On to RRIRPRPPRLPRPRPRPCDMPRP, for which the “shrunken log2 fold change” value was -0.217.
In the case of RRIRGRPPRLPRPRPRPACSPRP, the “shrunken log2 fold change” value worked out at 0.773.
Under RRIRPRPPRLPRPRPRPQMVPRP stands -0.491; under RRIRNRPPRLPRPRPRPCKQPRP, -0.0218.
Turning to RRIRERPPRLPRPRPRPYSIPRP, the “shrunken log2 fold change” value is -0.0605.
For the sequence RRIRIRPPRLPRPRPRPKWSPRP, the “shrunken log2 fold change” value turned out to be 0.107.
Regarding RRIRKRPPRLPRPRPRPEKWPRP, the “shrunken log2 fold change” value came to 0.422.
Regarding RRIRERPPRLPRPRPRPYCYPRP, the “shrunken log2 fold change” value was -0.979.
On to RRIRRRPPRLPRPRPRPTMWPRP, for which the “shrunken log2 fold change” value worked out at 0.364.
Turning to RRIRHRPPRLPRPRPRPTKVPRP, the “shrunken log2 fold change” value is -0.0672.
Under RRIRWRPPRLPRPRPRPNVSPRP stands -0.0556; under RRIRARPPRLPRPRPRPQAEPRP, 0.892.
For the sequence RRIRMRPPRLPRPRPRPHSAPRP, the “shrunken log2 fold change” value was 0.283.
On to RRIRPRPPRLPRPRPRPYIPPRP, for which the “shrunken log2 fold change” value was -0.719.
As for RRIRCRPPRLPRPRPRPHDNPRP, the “shrunken log2 fold change” value is -0.356.
The result for RRIRYRPPRLPRPRPRPQIRPRP reads -0.00839; that for RRIRQRPPRLPRPRPRPQIMPRP, -0.528.
Consider RRIRQRPPRLPRPRPRPKIWPRP, for which the “shrunken log2 fold change” value came to 0.362.
As for RRIRCRPPRLPRPRPRPVPMPRP, the “shrunken log2 fold change” value was found to be 0.998.
Consider RRIRTRPPRLPRPRPRPYLYPRP, for which the “shrunken log2 fold change” value was -0.702.
Under RRIRRRPPRLPRPRPRPLLHPRP stands 0.295; under RRIRWRPPRLPRPRPRPHFLPRP, 1.46; under RRIRRRPPRLPRPRPRPVHFPRP, -0.278.
On to RRIRLRPPRLPRPRPRPGDQPRP, for which the “shrunken log2 fold change” value came to 0.0619.
Regarding RRIRARPPRLPRPRPRPAYTPRP, the “shrunken log2 fold change” value is -0.0472.
On to RRIRHRPPRLPRPRPRPHWRPRP, for which the “shrunken log2 fold change” value turned out to be 0.125.
For the sequence RRIRARPPRLPRPRPRPHECPRP, the “shrunken log2 fold change” value was 0.423.
As to RRIRCRPPRLPRPRPRPHHVPRP, the “shrunken log2 fold change” value was 0.0159.
For RRIRPRPPRLPRPRPRPKVSPRP, the “shrunken log2 fold change” value was found to be 0.0436.
Consider RRIRDRPPRLPRPRPRPKFLPRP, for which the “shrunken log2 fold change” value is -0.241.
For the sequence RRIRVRPPRLPRPRPRPSFEPRP, the “shrunken log2 fold change” value was -0.214.
In the case of RRIRYRPPRLPRPRPRPLWGPRP, the “shrunken log2 fold change” value is -0.203.
RRIRHRPPRLPRPRPRPAIWPRP: the “shrunken log2 fold change” value was 0.137.
RRIRDRPPRLPRPRPRPFQPPRP: the “shrunken log2 fold change” value is 0.0201.
Consider RRIRPRPPRLPRPRPRPSDRPRP, for which the “shrunken log2 fold change” value was -0.00705.
As for RRIRGRPPRLPRPRPRPMDFPRP, the “shrunken log2 fold change” value is 0.213.
Under RRIRKRPPRLPRPRPRPCQKPRP stands -0.0405; under RRIRSRPPRLPRPRPRPNTTPRP, -0.194.
Regarding RRIRSRPPRLPRPRPRPCQAPRP, the “shrunken log2 fold change” value came to 0.116.
For RRIRERPPRLPRPRPRPSSWPRP, the “shrunken log2 fold change” value was -0.0518.
As for RRIRSRPPRLPRPRPRPNSHPRP, the “shrunken log2 fold change” value is -0.402.
RRIRRRPPRLPRPRPRPPRAPRP: the “shrunken log2 fold change” value was determined as 1.17.
With RRIRDRPPRLPRPRPRPENNPRP, the “shrunken log2 fold change” value is 0.264.
Take RRIRQRPPRLPRPRPRPEAGPRP: the “shrunken log2 fold change” value was found to be 0.109.
Regarding RRIRKRPPRLPRPRPRPNFEPRP, the “shrunken log2 fold change” value worked out at 0.0868.
The result for RRIRSRPPRLPRPRPRPQCSPRP reads -0.0935; that for RRIRHRPPRLPRPRPRPCCYPRP, -0.496.
For the sequence RRIRWRPPRLPRPRPRPQKCPRP, the “shrunken log2 fold change” value is -0.382.
For the sequence RRIRVRPPRLPRPRPRPCWNPRP, the “shrunken log2 fold change” value worked out at 0.0501.
Take RRIRDRPPRLPRPRPRPMFTPRP: the “shrunken log2 fold change” value is -0.174.
In the case of RRIRGRPPRLPRPRPRPCISPRP, the “shrunken log2 fold change” value is -0.273.
The result for RRIRHRPPRLPRPRPRPKFSPRP reads -0.304; that for RRIRNRPPRLPRPRPRPIHRPRP, 0.0891.
Take RRIRERPPRLPRPRPRPADRPRP: the “shrunken log2 fold change” value was -0.173.
For the sequence RRIRARPPRLPRPRPRPVHVPRP, the “shrunken log2 fold change” value was found to be 0.00822.
The result for RRIRRRPPRLPRPRPRPDLWPRP reads 0.676.
With RRIRNRPPRLPRPRPRPLIVPRP, the “shrunken log2 fold change” value is -0.332.
As to RRIRHRPPRLPRPRPRPKSCPRP, the “shrunken log2 fold change” value was -0.0344.
For RRIRERPPRLPRPRPRPRKLPRP, the “shrunken log2 fold change” value was -0.0356.
The result for RRIRQRPPRLPRPRPRPIPCPRP reads -0.244; that for RRIRFRPPRLPRPRPRPTHNPRP, -0.18.
Take RRIRMRPPRLPRPRPRPKIDPRP: the “shrunken log2 fold change” value came out at 0.285.
RRIRQRPPRLPRPRPRPPNWPRP: the “shrunken log2 fold change” value was determined as 0.358.
The result for RRIRSRPPRLPRPRPRPQSQPRP reads -0.258; that for RRIRFRPPRLPRPRPRPAGPPRP, 0.118.
The result for RRIRVRPPRLPRPRPRPCVWPRP reads -0.0237; that for RRIRKRPPRLPRPRPRPIRHPRP, 0.132.
Turning to RRIRHRPPRLPRPRPRPKHQPRP, the “shrunken log2 fold change” value was -0.195.
As for RRIRCRPPRLPRPRPRPGITPRP, the “shrunken log2 fold change” value is -0.232.
In the case of RRIRRRPPRLPRPRPRPAGHPRP, the “shrunken log2 fold change” value came out at 0.187.
For the sequence RRIRPRPPRLPRPRPRPLWFPRP, the “shrunken log2 fold change” value came to 0.173.
Take RRIRARPPRLPRPRPRPEWVPRP: the “shrunken log2 fold change” value was found to be 0.775.
As for RRIRQRPPRLPRPRPRPAARPRP, the “shrunken log2 fold change” value worked out at 0.246.
With RRIRCRPPRLPRPRPRPTSDPRP, the “shrunken log2 fold change” value is 0.129.
As to RRIRFRPPRLPRPRPRPYWCPRP, the “shrunken log2 fold change” value was -0.399.
The result for RRIRVRPPRLPRPRPRPAISPRP reads -0.122; that for RRIRMRPPRLPRPRPRPYIAPRP, -0.038.
Consider RRIRIRPPRLPRPRPRPPGIPRP, for which the “shrunken log2 fold change” value is -0.147.
For the sequence RRIRARPPRLPRPRPRPCPTPRP, the “shrunken log2 fold change” value was 0.088.
On to RRIRYRPPRLPRPRPRPLCCPRP, for which the “shrunken log2 fold change” value was -0.391.
Take RRIRRRPPRLPRPRPRPEDAPRP: the “shrunken log2 fold change” value came to 0.582.
RRIRGRPPRLPRPRPRPQECPRP: the “shrunken log2 fold change” value amounted to 0.226.
In the case of RRIRQRPPRLPRPRPRPFSCPRP, the “shrunken log2 fold change” value was -0.00804.
On to RRIRHRPPRLPRPRPRPFAQPRP, for which the “shrunken log2 fold change” value was -0.163.
Under RRIRTRPPRLPRPRPRPFYQPRP stands -0.65; under RRIRDRPPRLPRPRPRPPAWPRP, 0.811.
With RRIRERPPRLPRPRPRPGPIPRP, the “shrunken log2 fold change” value is 0.0264.
Consider RRIRQRPPRLPRPRPRPLHMPRP, for which the “shrunken log2 fold change” value was -0.384.
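Also: peptides expressed intracellularly from a pBAD plasmid library in pooled LB shake-flask culture, induced with 0.3% L-arabinose, DNA abundance read by NGS, three biological replicates, DESeq2 with apeglm shrinkage.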
